# Results published in patent US20250333461A1 (BEIJING QL BIOPHARMACEUTICAL, published 2025).
# B1: Native FGF21 (ligand)
# chain: HPIPDSSPLLQFGGQVRQRYLYTDDAQQTEAHLEIREDGTVGGAADQSPESLLQLKALKPGVIQILGVKTSRFLCQRPDGALYGSLHFDPEACSFRELLLEDGYNVYQSEAHGLPLHLPGNKSPHRDPAPRGPARFLPLPGLPPALPEPPGILAPQPPDVGSSDPLSMVGPSQGRSPSYAS
# Target: human beta-Klotho (human, UniProt Q86Z14 1-1044)
# Assay: cell-based or functional assay
binder,measurement,value
B1,"FGF21 activity (EC50, nM); p-ERK levels, 1% HSA",0.96 nM
